In PMC9555727 (Chemical Science, 2022):
Several values for one entry are separate records, joined by “and”; a condition that tells them apart may be missing. Identical values can stand only once. Like-named read-outs stand apart in the source and are kept apart here. Each block holds one molecule with its values, some of them ahead of it.

How the values were obtained:
[1] = molecular target: Can (E. coli BL21 (DE3)); test: not stated; summary of the solution experiments on the 17 proteins (native MS, MP, SEC, SAXS); which method gave the stated form is not given; details in Table S2, Fig. 5A and Fig. 6
[2] = molecular target: FabG (3-oxoacyl-[acyl-carrier-protein] reductase) from E. coli-DE3 (E. coli BL21 (DE3)); test: SAXS; EMBL P12 beamline, 20 °C, four concentrations between about 10 and 90 μM; MM from I(0) and equilibrium fit with OLIGOMER on PDB structures
[3] = molecular target: FabG (3-oxoacyl-[acyl-carrier-protein] reductase) from E. coli-DE3 (E. coli BL21 (DE3)); test: as above; remark: listed apart in the source
[4] = molecular target: FabG (3-oxoacyl-[acyl-carrier-protein] reductase) from E. coli-DE3 (E. coli BL21 (DE3)); test: native MS; as a1, FabG^DE3 in the presence of DTT; 2.5-40 μM
[5] = molecular target: FabG (3-oxoacyl-[acyl-carrier-protein] reductase) from E. coli-DE3 (E. coli BL21 (DE3)); test: mass photometry; protein stocks diluted in PBS pH 7.4 to nanomolar concentrations (~100 nM) immediately before measurement; detection threshold ~40 kDa
[6] = molecular target: FabG (3-oxoacyl-[acyl-carrier-protein] reductase) from E. coli-DE3 (E. coli BL21 (DE3)); test: SEC; 30 μg protein on Superdex 200 Increase 10/300 GL in PBS pH 7.4; MM from a standard curve of elution volumes
[7] = molecular target: FabG (3-oxoacyl-[acyl-carrier-protein] reductase) from E. coli-DE3 (E. coli BL21 (DE3)); test: native MS; online buffer exchange MS; proteins diluted in 50 mM HEPES, 50 mM NaCl pH 7.4 (FabG: 25 mM tricine, 50 mM NaCl pH 8.5), overnight at 4 °C, exchanged online to 200 mM ammonium acetate pH 6.8; range of concentrations 40-0.15 μM before dilution; DeoC: apparent affinity, dimer to monomers, fit of eqn (1)
[8] = molecular target: FabG (3-oxoacyl-[acyl-carrier-protein] reductase) from E. coli-DE3 (E. coli BL21 (DE3)); test: non-reducing SDS-PAGE; 10 μg protein without β-mercaptoethanol, heated, 4-20% gel, Coomassie stain; shows inter-protein disulfide bridges
[9] = molecular target: IspD (E. coli BL21 (DE3)); test: not stated; summary of the solution experiments on the 17 proteins (native MS, MP, SEC, SAXS); which method gave the stated form is not given; details in Table S2, Fig. 5A and Fig. 6
[10] = molecular target: NadK (E. coli BL21 (DE3)); test: SAXS; EMBL P12 beamline, 20 °C, four concentrations between about 10 and 90 μM; MM from I(0) and equilibrium fit with OLIGOMER on PDB structures
[11] = molecular target: NadK (E. coli BL21 (DE3)); test: SEC; 30 μg protein on Superdex 200 Increase 10/300 GL in PBS pH 7.4; MM from a standard curve of elution volumes
[12] = molecular target: NadK (E. coli BL21 (DE3)); test: native MS; online buffer exchange MS; proteins diluted in 50 mM HEPES, 50 mM NaCl pH 7.4 (FabG: 25 mM tricine, 50 mM NaCl pH 8.5), overnight at 4 °C, exchanged online to 200 mM ammonium acetate pH 6.8; range of concentrations 40-0.15 μM before dilution; DeoC: apparent affinity, dimer to monomers, fit of eqn (1)
[13] = molecular target: SpeB (E. coli BL21 (DE3)); test: not stated; summary of the solution experiments on the 17 proteins (native MS, MP, SEC, SAXS); which method gave the stated form is not given; details in Table S2, Fig. 5A and Fig. 6
[14] = molecular target: Superoxide dismutase (SodA) (E. coli BL21 (DE3)); test: SAXS; EMBL P12 beamline, 20 °C, four concentrations between about 10 and 90 μM; MM from I(0) and equilibrium fit with OLIGOMER on PDB structures
[15] = molecular target: Superoxide dismutase (SodA) (E. coli BL21 (DE3)); test: mass photometry; protein stocks diluted in PBS pH 7.4 to nanomolar concentrations (~100 nM) immediately before measurement; detection threshold ~40 kDa
[16] = molecular target: Superoxide dismutase (SodA) (E. coli BL21 (DE3)); test: SEC; 30 μg protein on Superdex 200 Increase 10/300 GL in PBS pH 7.4; MM from a standard curve of elution volumes
[17] = molecular target: Superoxide dismutase (SodA) (E. coli BL21 (DE3)); test: native MS; online buffer exchange MS; proteins diluted in 50 mM HEPES, 50 mM NaCl pH 7.4 (FabG: 25 mM tricine, 50 mM NaCl pH 8.5), overnight at 4 °C, exchanged online to 200 mM ammonium acetate pH 6.8; range of concentrations 40-0.15 μM before dilution; DeoC: apparent affinity, dimer to monomers, fit of eqn (1)
[18] = molecular target: Upp (E. coli BL21 (DE3)); test: not stated; summary of the solution experiments on the 17 proteins (native MS, MP, SEC, SAXS); which method gave the stated form is not given; details in Table S2, Fig. 5A and Fig. 6
[19] = molecular target: Upp (E. coli BL21 (DE3)); test: mass photometry; protein stocks diluted in PBS pH 7.4 to nanomolar concentrations (~100 nM) immediately before measurement; detection threshold ~40 kDa
[20] = molecular target: the molecule itself; test: SEC; 30 μg protein on Superdex 200 Increase 10/300 GL in PBS pH 7.4; MM from a standard curve of elution volumes
[21] = molecular target: the molecule itself; test: native MS; online buffer exchange MS; proteins diluted in 50 mM HEPES, 50 mM NaCl pH 7.4 (FabG: 25 mM tricine, 50 mM NaCl pH 8.5), overnight at 4 °C, exchanged online to 200 mM ammonium acetate pH 6.8; range of concentrations 40-0.15 μM before dilution; DeoC: apparent affinity, dimer to monomers, fit of eqn (1)

stoichiometry N [1]: 4
Molecule: Can (enzyme)

SAXS MM from I(0) divided by the monomer's mass [2]: 3.5 | stoichiometry N [2]: 6 and 2 and 4 | SAXS MM from I(0) divided by the monomer's mass [3]: 3.7 | stoichiometry N [4]: 2 and 4 | stoichiometry N [5]: 2 and 4 and 6 | stoichiometry N [6]: 4 and 2 | stoichiometry N [7]: 6 | percent in an inter-protein disulfide bonded dimer [8]: 50%
Molecule: FabG (3-oxoacyl-[acyl-carrier-protein] reductase) from E. coli-DE3 (enzyme)

stoichiometry N [9]: 2 and 4
Molecule: IspD (enzyme)

stoichiometry N [18]: 2 and 4 and 6 | stoichiometry N [19]: 2
Molecule: Upp (enzyme)

Further lines, the molecule ahead of its results:

Molecule: NadK (enzyme)
subunit average from SAXS I(0) at 8 μM [10]: 2.37 | subunit average from SAXS I(0) at 61 μM [10]: 2.67 | stoichiometry N [11]: 2.7 | percent dimer at ∼1 μM [12]: 56% | percent dimer at ∼40 μM [12]: 23% | percent monomer at ∼1 μM [12]: 12% | percent monomer at ∼40 μM [12]: 2% | percent tetramer at ∼1 μM [12]: 32% | percent tetramer at ∼40 μM [12]: 75% | stoichiometry N [12]: 2 and 4

Molecule: SpeB (enzyme)
stoichiometry N [13]: 6

Molecule: Superoxide dismutase (SodA) (enzyme)
stoichiometry N [14]: 2 | stoichiometry N [15]: 2 | stoichiometry N [16]: 2 | stoichiometry N [17]: 2

B1: FabG (3-oxoacyl-[acyl-carrier-protein] reductase) from E. coli-K12 (enzyme, E. coli K12)
chain: MNFEGKIALVTGASRGIGRAIAETLAARGAKVIGTATSENGAQAISDYLGANGKGLMLNVTDPASIESVLEKIRAEFGEVDILVNNAGITRDNLLMRMKDEEWNDIIETNLSSVFRLSKAVMRAMMKKRHGRIITIGSVVGTMGNGGQANYAAAKAGLIGFSKSLAREVASRGITVNVVAPGFIETDMTRALSDDQRAGILAQVPAGRLGGAQEIANAVAFLASDEAAYITGETLHVNGGMYMV
notes: FabG, 3-oxoacyl-[acyl-carrier-protein] reductase of E. coli K12, Arg at position 167; probably the same vector, cleaved His-bdSumo tag and added N-terminal alanine as for the other proteins; also called FabG^K12; source: E. coli, purified
stoichiometry N [20]: 2 | stoichiometry N [21]: 4
